Results reported in paper PMC10522771, “The C-terminal transactivation domain of MITF interacts promiscuously with co-activator CBP/p300” (Scientific Reports, 2023).

T1: MITF_(CTERM) (UniProt O75030-9 289-419)
T1 construct: numbers count on: the MITF-M isoform; 15N-labelled for the NMR titration; also called C-terminal MITF-M; MITF C-terminal region; source: E. coli BL21 (DE3), purified (Ni-NTA, TEV cleavage, Q-Sepharose)
T1 sequence (looked up): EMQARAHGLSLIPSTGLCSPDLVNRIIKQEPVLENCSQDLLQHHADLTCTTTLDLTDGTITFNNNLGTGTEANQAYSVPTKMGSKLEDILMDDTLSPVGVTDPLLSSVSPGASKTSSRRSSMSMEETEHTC

T2: MITF_(ΔThr-rich) (UniProt O75030-9 289-419, Δ334–345)
T2 construct: numbers count on: the MITF-M isoform; The methods print Δ334–354; the legend, the results and the canonical numbers (Δ441–452) give Δ334–345; also called Δ334–345; deletion of the threonine-rich region; source: E. coli BL21 (DE3), purified (Ni-NTA, TEV cleavage, Q-Sepharose)
T2 sequence (looked up): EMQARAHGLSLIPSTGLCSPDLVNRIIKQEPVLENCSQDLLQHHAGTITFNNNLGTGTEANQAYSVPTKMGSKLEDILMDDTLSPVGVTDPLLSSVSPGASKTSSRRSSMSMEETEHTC

T3: MITF_(ΔAcidic) (UniProt O75030-9 289-419, Δ372–381)
T3 construct: numbers count on: the MITF-M isoform; also called Δ372–381; deletion of the acidic region; source: E. coli BL21 (DE3), purified (Ni-NTA, TEV cleavage, Q-Sepharose)
T3 sequence (looked up): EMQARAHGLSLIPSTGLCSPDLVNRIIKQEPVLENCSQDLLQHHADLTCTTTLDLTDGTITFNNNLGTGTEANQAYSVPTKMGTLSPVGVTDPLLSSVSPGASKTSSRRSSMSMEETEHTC

T4: MITF_(ΔSer-rich) (UniProt O75030-9 289-419, Δ394–411)
T4 construct: numbers count on: the MITF-M isoform; The methods print Δ372–381 for this variant too; the legend, the results and the canonical numbers (Δ501–518) give Δ394–411; also called Δ394–411; deletion of the serine-rich region; source: E. coli BL21 (DE3), purified (Ni-NTA, TEV cleavage, Q-Sepharose)
T4 sequence (looked up): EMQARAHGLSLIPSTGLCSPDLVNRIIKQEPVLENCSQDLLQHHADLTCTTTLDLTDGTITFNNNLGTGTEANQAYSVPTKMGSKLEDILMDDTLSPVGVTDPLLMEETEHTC

B1: TAZ2 domain of CBP/p300 (domain or fragment)
chain: GDSRRLSIQRCIQSLVHACQCRNANCSLPSCQKMKRVVQHTKGCKRKTNGGCPICKQLIALCCYHAKHCQENKCPVPFCLNI
B2: TAZ1 domain of CBP/p300 (domain or fragment)
chain: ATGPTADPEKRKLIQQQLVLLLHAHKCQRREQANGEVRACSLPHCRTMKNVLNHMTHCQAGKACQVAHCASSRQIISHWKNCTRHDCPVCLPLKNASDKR
modifications: three structural Zn2+ ions expected; the paper does not state CBP or p300, species or limits (described in a cited paper); mouse CBP TAZ1 340-439 taken by convention

Legend:
Assay in all cases: ITC; 400 µM TAZ1 or TAZ2 in the syringe injected into 16–30 µM MITF construct in the cell; 20 mM TRIS pH 8, 25 mM NaCl, 5 mM βME, 10 µM ZnCl2; 30 °C; single-binding-site fit; duplicate
Settings in all cases: both partners purified
[1] = target: T1, MITF_(CTERM)
[2] = target: T2, MITF_(ΔThr-rich)
[3] = target: T3, MITF_(ΔAcidic)
[4] = target: T4, MITF_(ΔSer-rich)

Row | Kd [1] [nM] | Kd [2] [nM] | Kd [3] [nM] | Kd [4] [nM] | Binder
1 | 760 ± 50 | 410 ± 20 | 7240 ± 700 | 2260 ± 90 | B1
2 | 5000 ± 310 | – | – | – | B2
